This is an account of results in patent US6406886.

Holding throughout (assay): cell-based or functional assay
Assay [1] addresses human RhoA (1st to 193 residues) GST fusion protein (human) (UniProt P61586).
Assay [2] concerns the target human Rap1A (Glu63) (1st to 184th residues) (human) (UniProt P62834).
The target of a further assay is Ran.
For assay [3], the target named is human Ha-Ras (1st to 189th residues) (human) (UniProt P01112).
The target in another assay is Rac1.
For assay [4], the target named is yeast Rsr1 (1st to 272nd residues) (yeast) (UniProt P13856).
Chain of yeast Rsr1 (1st to 272nd residues) (yeast) (P13856 whole entry, form in doubt): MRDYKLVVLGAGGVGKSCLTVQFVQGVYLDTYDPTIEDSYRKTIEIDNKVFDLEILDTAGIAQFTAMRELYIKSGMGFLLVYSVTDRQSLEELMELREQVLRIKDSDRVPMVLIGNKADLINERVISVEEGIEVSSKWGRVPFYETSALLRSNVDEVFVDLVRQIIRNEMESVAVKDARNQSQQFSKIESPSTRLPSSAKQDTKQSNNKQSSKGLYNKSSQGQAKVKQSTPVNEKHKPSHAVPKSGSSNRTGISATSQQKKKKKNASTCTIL

Chain of human Ha-Ras (1st to 189th residues) (human) (P01112 whole entry, form in doubt): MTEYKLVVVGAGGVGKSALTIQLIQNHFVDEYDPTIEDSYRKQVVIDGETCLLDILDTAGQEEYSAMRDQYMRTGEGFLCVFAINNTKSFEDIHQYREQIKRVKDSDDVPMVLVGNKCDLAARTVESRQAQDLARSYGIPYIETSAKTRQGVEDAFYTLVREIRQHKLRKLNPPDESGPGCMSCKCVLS
Chain of human Rap1A (Glu63) (1st to 184th residues) (human) (P62834 whole entry): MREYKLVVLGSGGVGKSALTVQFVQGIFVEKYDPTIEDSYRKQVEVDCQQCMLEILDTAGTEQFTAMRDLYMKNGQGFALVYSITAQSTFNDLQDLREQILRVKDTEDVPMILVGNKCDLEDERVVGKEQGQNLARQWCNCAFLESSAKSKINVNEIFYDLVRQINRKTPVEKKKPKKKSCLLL
Chain of human RhoA (1st to 193 residues) GST fusion protein (human) (P61586 whole entry, form in doubt, the tested form may be a part): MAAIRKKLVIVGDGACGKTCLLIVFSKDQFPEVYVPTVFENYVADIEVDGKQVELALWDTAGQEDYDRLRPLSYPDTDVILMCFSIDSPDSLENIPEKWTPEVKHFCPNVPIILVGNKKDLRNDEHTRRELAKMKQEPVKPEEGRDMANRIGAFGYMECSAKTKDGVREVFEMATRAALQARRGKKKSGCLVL

B1: Span-N/GST fusion protein (protein, not shown: a dimerising Fc or GST)
chain: MYNNQEAGAAFMQFLTLLGDVVRLKGFESYRAQLDTKTDSTGTHSLYTTYQDHEIMFHVSTMLPYTPNNQQQLLRKRHIGNDIVTIVFQEPGSKPFCPTTIRSHFQHVFLVVRAHAPCTPHTSYRVAVSRTQDTPAFGPALPEGGGPFAANADFRAFLLAKALNGEQAAGHARQFHAMATRTRQQYLQDL
On to B1, for which the Stimulation (times) of GTPase activity in assay [1] came out at 0.6 times; in assay [2], 6 times; in assay [3], 0.3 times; with Rac1, 0 times; in assay [4], 16 times. The molecule also had an EC16 (µg/ml), activation of Ran GTPase in the assay with Ran of 25 µg/mL.
